Source: paper PMC10754036

Target: PSD95, His tagged recombinant (UniProt P78352)
Assay: BLI

PSD95, His tagged recombinant, sequence (P78352 whole entry): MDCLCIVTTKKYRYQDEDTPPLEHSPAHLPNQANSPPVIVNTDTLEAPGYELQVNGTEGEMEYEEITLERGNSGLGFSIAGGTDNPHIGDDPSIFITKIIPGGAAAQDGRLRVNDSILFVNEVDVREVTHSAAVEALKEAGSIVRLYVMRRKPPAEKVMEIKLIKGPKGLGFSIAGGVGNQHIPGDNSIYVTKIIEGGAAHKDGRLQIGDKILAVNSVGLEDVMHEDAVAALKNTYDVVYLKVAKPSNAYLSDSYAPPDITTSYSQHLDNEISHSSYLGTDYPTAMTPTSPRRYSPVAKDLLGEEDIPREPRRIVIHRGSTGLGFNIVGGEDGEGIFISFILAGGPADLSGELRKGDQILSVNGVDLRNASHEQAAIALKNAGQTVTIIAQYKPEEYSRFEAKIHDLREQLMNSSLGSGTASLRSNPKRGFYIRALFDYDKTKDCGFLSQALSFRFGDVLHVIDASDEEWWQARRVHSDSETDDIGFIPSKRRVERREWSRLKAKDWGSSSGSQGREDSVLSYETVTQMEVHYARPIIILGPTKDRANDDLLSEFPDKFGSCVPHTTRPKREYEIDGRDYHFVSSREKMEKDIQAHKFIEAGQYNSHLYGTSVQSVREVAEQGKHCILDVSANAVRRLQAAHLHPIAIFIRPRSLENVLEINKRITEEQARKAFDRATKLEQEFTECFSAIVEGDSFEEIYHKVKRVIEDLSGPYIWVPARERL

Substance “NS1-SUMO (1918 NS1 covalently fused with SUMO at its C-terminus), His tagged recombinant” has a Kd of 0.63 µM.
